Here are results for eight molecules from patent US20180244796A1 (CARSGEN THERAPEUTICS, published 2018).

Ends that are not written are not given here. muFc = mouse Fc fragment of vector pCMV-V5-muFc

The target of test [1] is T1, scFv-P1A6E-Fc (human, UniProt P01857-1 99-330 = IgG part, limits assumed).
T1 construct: domain: Fc fragment; scFv cloned NheI/BamHI into pCMV-V5-Fc, expressed in HEK-293F, protein A purified; also called P1A6E single chain antibody; antibody-Fc fusion protein scFv-P1A6E-Fc
Briefly: ELISA, scFv-Fc against MSTL-R1B-mFc; x axis con.(nM) [left panel].

The target of test [2] is T2, scFv-P3F2-Fc (human, UniProt P01857-1 99-330 = IgG part, limits assumed).
T2 construct: domain: Fc fragment; scFv cloned NheI/BamHI into pCMV-V5-Fc, expressed in HEK-293F, protein A purified; also called P3F2 single chain antibody; P3F2 single chain antibod
The test can be described thus: ELISA, scFv-Fc against MSTL-R1B-mFc; x axis con.(nM) [right panel]. On the technique in general: In an ELISA, binding on a coated surface is turned into a signal by an enzyme label.

For test [3], the target named is T1, scFv-P1A6E-Fc. The test can be described thus: ELISA, scFv-Fc against MSTL-R1A-mFc; x axis con.(nM), the sheet does not say whose concentration [left panel].
Test [4] deals with T2, scFv-P3F2-Fc. Briefly: ELISA, scFv-Fc against MSTL-R1A-mFc; x axis con.(nM), the sheet does not say whose concentration [right panel].
Test [5] deals with T1, scFv-P1A6E-Fc. Briefly: ELISA, scFv-Fc against MSLT-R1-mFc; x axis con.(nM), the sheet does not say whose concentration [left panel].
For test [6], the target named is T2, scFv-P3F2-Fc. Briefly: ELISA, scFv-Fc against MSLT-R1-mFc; x axis con.(nM), the sheet does not say whose concentration [right panel].
Test [7] has as its target T1, scFv-P1A6E-Fc. The test can be described thus: ELISA, scFv-Fc against MSTL-R1AB-mFc; x axis con.(nM), the sheet does not say whose concentration [left panel].
Test [8] has as its target T2, scFv-P3F2-Fc. The test can be described thus: ELISA, scFv-Fc against MSTL-R1AB-mFc; x axis con.(nM), the sheet does not say whose concentration [right panel].
Test [9] concerns the target T1, scFv-P1A6E-Fc. Briefly: flow cytometry on PANC-1-MSLN cells, 20 ug/ml antibody, goat anti-human-FITC. How it is done: (§1) Each of antibodies scFv-P1A6E-Fc and scFv-P3F2-Fc was analyzed for binding ability to mesothelin at cell surface by Fluorescence Activated Cell Sorter (FACS) (Guava 8HT, supplied by Millipore).
(§2) 4) antibodies P1A6E and P3F2 to be tested were added into the two experimental groups, respectively, adding antibodies ss and C10 (purchased from Shanghai Rui Jin Biotechnology Co., Ltd.) were added into two positive control groups added as positive controls, and another control group is PBS blank control without antibody. The final concentration of each antibody was 20 μg/ml. 100 μl was added to each tube, and incubated in an ice bath for 45 minutes.
On the technique in general: Flow cytometry measures light scatter and fluorescence of single cells or particles in a stream.

The target of test [10] is T2, scFv-P3F2-Fc. Described as above. The method, then:
as §1, §2

For test [11], the target named is T1, scFv-P1A6E-Fc. Briefly: ELISA on peptide-muFc fusion proteins.
Test [12] deals with T2, scFv-P3F2-Fc. The test can be described thus: ELISA on peptide-muFc fusion proteins.
Test [13] deals with T1, scFv-P1A6E-Fc. Briefly: ELISA, scFv-Fc against MSLT-R3-mFc; x axis con.(nM) [left panel].
Test [14] concerns the target T2, scFv-P3F2-Fc. The test can be described thus: ELISA, scFv-Fc against MSLT-R3-mFc; x axis con.(nM) [right panel].
For test [15], the target named is T1, scFv-P1A6E-Fc. The test can be described thus: ELISA, scFv-Fc against MSLT-R2-mFc; x axis con.(nM) [left panel].
The target of test [16] is T2, scFv-P3F2-Fc. Briefly: ELISA, scFv-Fc against MSLT-R2-mFc; x axis con.(nM) [right panel].

T2 sequence (P01857 other isoform, or with tags, fused parts or gaps limits assumed): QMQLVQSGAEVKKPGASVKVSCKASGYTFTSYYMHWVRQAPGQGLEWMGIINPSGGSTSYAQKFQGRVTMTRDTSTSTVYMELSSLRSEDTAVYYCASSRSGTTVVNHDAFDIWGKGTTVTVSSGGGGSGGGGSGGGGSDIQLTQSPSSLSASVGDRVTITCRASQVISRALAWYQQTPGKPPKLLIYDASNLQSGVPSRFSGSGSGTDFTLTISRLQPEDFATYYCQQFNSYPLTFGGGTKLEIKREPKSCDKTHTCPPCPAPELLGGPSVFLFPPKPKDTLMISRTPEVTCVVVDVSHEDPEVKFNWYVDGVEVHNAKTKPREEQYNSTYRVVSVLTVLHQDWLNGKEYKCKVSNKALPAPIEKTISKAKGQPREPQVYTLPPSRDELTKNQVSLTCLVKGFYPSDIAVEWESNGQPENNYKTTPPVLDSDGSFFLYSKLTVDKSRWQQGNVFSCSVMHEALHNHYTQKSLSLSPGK
T1 sequence (P01857 other isoform, or with tags, fused parts or gaps limits assumed): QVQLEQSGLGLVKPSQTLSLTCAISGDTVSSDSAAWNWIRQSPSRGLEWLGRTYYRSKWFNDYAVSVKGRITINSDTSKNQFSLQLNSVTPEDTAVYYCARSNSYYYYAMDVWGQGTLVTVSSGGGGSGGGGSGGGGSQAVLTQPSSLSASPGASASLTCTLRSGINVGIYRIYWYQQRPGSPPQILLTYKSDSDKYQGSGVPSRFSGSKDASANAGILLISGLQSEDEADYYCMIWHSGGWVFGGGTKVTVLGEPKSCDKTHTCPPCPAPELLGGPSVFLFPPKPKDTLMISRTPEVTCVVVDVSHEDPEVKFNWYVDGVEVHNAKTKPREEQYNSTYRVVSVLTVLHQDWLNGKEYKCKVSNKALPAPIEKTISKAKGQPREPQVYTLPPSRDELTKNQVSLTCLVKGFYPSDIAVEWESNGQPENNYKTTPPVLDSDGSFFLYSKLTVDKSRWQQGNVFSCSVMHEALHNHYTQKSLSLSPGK

B1: human mesothelin region R1B (328D-369I)-muFc fusion protein (Fc fusion)
chain: DAALLATQMDRVNAIPFTYEQLDVLKHKLDELYPQGYPESVI-muFc
notes: not shown: mouse Fc fragment of vector pCMV-V5-muFc
With B1, the binding result with scFv-P1A6E-Fc [1] and with scFv-P3F2-Fc [2] was “no binding (tested: last point just under 100 nM)” each time.

B2: human mesothelin region R1A (296E-337D)-muFc fusion protein (Fc fusion)
chain: EVEKTACPSGKKAREIDESLIFYKKWELEACVDAALLATQMD
notes: as for B1
Turning to B2, the binding result with scFv-P1A6E-Fc [3] and in the test with scFv-P3F2-Fc [4] was “binds” throughout.

B3: human mesothelin region R1 (E296-T390)-muFc fusion protein (Fc fusion)
chain: EVEKTACPSGKKAREIDESLIFYKKWELEACVDAALLATQMDRVNAIPFTYEQLDVLKHKLDELYPQGYPESVIQHLGYLFLKMSPEDIRKWNVT
notes: also called region 1; not shown: mouse Fc fragment of vector pCMV-V5-muFc
For B3, the binding result in the test with scFv-P1A6E-Fc [5] and with scFv-P3F2-Fc [6] was “binds” in each case.

B4: human mesothelin region R1AB (296E-359L)-muFc fusion protein (Fc fusion)
chain: EVEKTACPSGKKAREIDESLIFYKKWELEACVDAALLATQMDRVNAIPFTYEQLDVLKHKLDEL
notes: as for B1
For B4, the binding result with scFv-P1A6E-Fc [7] and in the test with scFv-P3F2-Fc [8] was “binds” each time.

B5: human mesothelin on PANC-1-MSLN cells (other)
chain: APLADYKDDDDKEVEKTACPSGKKAREIDESLIFYKKWELEACVDAALLATQMDRVNAIPFTYEQLDVLKHKLDELYPQGYPESVIQHLGYLFLKMSPEDIRKWNVTSLETLKALLEVNKGHEMSPQVATLIDRFVKGRGQLDKDTLDTLTAFYPGYLCSLSPEELSSVPPSSIWAVRPQDLDTCDPRQLDVLYPKARLAFQNMNGSEYFVKIQSFLGGAPTEDLKALSQQNVSMDLATFMKLRTDAVLPLTVAEVQKLLGPHVEGLKAEERHRPVRDWILRQRQDDLDTLGLGLQGGIPNGYLVLDLSMQEALS
notes: also called mesothelin at cell surface
On to B5, for which the binding result with scFv-P1A6E-Fc [9] and in the test with scFv-P3F2-Fc [10] was “binds” each time.

In the case of YKKWELEACVDAALLATQMDRVNAIPFTYE (Fc fusion, not shown: mouse Fc fragment (muFc)) [mesothelin peptide R1J10-muFc fusion protein], the binding result with scFv-P1A6E-Fc [11] and in the test with scFv-P3F2-Fc [12] was “no binding” each time.

B6: human mesothelin region R3 (N487-G581)-muFc fusion protein (Fc fusion)
chain: NMNGSEYFVKIQSFLGGAPTEDLKALSQQNVSMDLATFMKLRTDAVLPLTVAEVQKLLGPHVEGLKAEERHRPVRDWILRQRQDDLDTLGLGLQG
notes: as for B1
Turning to B6, the binding result was “no binding (tested: last point between 100 and 1000 nM)” in the test with scFv-P1A6E-Fc [13]; “no binding (tested: last point between 100 and 1000 nM)” with scFv-P3F2-Fc [14].

B7: human mesothelin region R2 (S391-Q486)-muFc fusion protein (Fc fusion)
chain: SLETLKALLEVNKGHEMSPQVATLIDRFVKGRGQLDKDTLDTLTAFYPGYLCSLSPEELSSVPPSSIWAVRPQDLDTCDPRQLDVLYPKARLAFQ
notes: as for B1
On to B7, for which the binding result in the test with scFv-P1A6E-Fc [15] was “no binding (tested: last point between 100 and 1000 nM)”; with scFv-P3F2-Fc [16] it was “no binding (tested: last point between 100 and 1000 nM)”.
